Laboratory results as given in patent US20240043515A1 (Chugai, published 2024).
Substitutions are numbered along the chain they refer to. Names and notes keep the numbering of the source.

T1: human FcγRIIb extracellular domain (human, UniProt P31994 43-217)
T1 construct: extracellular domain; also called hFcγR IIb
T1 sequence (looked up): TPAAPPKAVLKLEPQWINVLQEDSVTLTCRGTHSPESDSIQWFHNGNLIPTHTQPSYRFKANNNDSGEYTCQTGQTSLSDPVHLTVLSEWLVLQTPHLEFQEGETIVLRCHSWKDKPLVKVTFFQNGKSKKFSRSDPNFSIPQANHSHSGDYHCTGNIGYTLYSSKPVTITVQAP

T2: human FcγRIIa H extracellular domain (human, UniProt P12318 34-217)
T2 construct: extracellular domain; also called hFcγR IIa H; FcγRIIa allotype H131
T2 sequence (looked up): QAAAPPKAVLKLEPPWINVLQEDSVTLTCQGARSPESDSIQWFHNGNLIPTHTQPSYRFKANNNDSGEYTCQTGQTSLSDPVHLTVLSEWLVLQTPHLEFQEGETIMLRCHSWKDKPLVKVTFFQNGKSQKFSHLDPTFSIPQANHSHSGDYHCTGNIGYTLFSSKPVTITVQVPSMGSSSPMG

T3: human FcγRIIa R extracellular domain (human, UniProt P12318 34-217)
T3 construct: extracellular domain; also called hFcγR IIa R; FcγRIIa allotype R131
T3 sequence (looked up): T2 sequence (looked up) with H134R

T4: hFcγRIIaH on Jurkat effector cells (human, UniProt P12318 34-317)
T4 sequence (looked up): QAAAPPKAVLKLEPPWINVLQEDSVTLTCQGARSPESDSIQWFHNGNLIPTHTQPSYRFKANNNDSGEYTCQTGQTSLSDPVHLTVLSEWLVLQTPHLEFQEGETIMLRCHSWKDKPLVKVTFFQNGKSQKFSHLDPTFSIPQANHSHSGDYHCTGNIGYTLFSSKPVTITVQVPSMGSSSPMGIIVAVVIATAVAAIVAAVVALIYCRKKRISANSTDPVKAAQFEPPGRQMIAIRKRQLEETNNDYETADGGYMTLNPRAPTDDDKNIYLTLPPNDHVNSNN

B1: EGL-ART2 (H240-Kn120/L73-k0//H240-H1068/L73-k0) (antibody, human IgG1, kappa)
heavy 1: QDQLVQSGAEVKKPGASVKVSCKASGFNIKDTYIQWVRQAPGQGLEWMGRIDPLRKQTKYREKFEGRVTITADTSTNTAYMELSSLRSEDTAVYYCVRSGREFDYWGQGTLVTVSSASTKGPSVFPLAPSSKSTSGGTAALGCLVKDYFPEPVTVSWNSGALTSGVHTFPAVLQSSGLYSLSSVVTVPSSSLGTQTYICNVNHKPSNTKVDKKVEPKSCDKTHTCPPCPAPEYYWGPMVFLFPPKPKDTLMISRTPEVTCVVVDVSDEDPEVKFNWYVDGVEVHNAKTKPREEQYNATYRVVSVLTVLHQDWLNGKEYKCKVSNKDLPAPIEKTISKAKGQPREPQVCTLPPSRDELTKNQVSLWCLVKGFYPSDIAVEWESNGQPENNYKTTPPVLDSDGSFFLYSKLTVDKSRWQQGNVFSCSVMHEALHNHYTQKSLSLSP
heavy 2: QDQLVQSGAEVKKPGASVKVSCKASGFNIKDTYIQWVRQAPGQGLEWMGRIDPLRKQTKYREKFEGRVTITADTSTNTAYMELSSLRSEDTAVYYCVRSGREFDYWGQGTLVTVSSASTKGPSVFPLAPSSKSTSGGTAALGCLVKDYFPEPVTVSWNSGALTSGVHTFPAVLQSSGLYSLSSVVTVPSSSLGTQTYICNVNHKPSNTKVDKKVEPKSCDKTHTCPPCPAPELLGGPSVFLFPPKPKDTLMISRTPEVTCVVVDVSHEEPEVKFNWYVDGVEVHNAKTKPREEQYNSTYRVVSVLTVLHQDWLNGKEYKCKVSNDALPKPIEETISKAKGQPREPQVYTLPPSRCELTKNQVSLSCAVKGFYPSDIAVEWESNGQPENNYKTTPPVLDSDGSFFLVSKLTVDKSRWQQGNVFSCSVMHEALHNHYTQKSLSLSP
light: DIQMTQSPSSLSASVGDRVTITCRASQDIHKYIAWYQQKPGQAPRLLIQYTSTLQPGVPSRFSGSGSGTDYTFTISSLQPEDIATYYCLQYEQLRTFGGGTKVEIKRTVAAPSVFIFPPSDEQLKSGTASVVCLLNNFYPREAKVQWKVDNALQSGNSQESVTEQDSKDSTYSLSSTLTLSKADYEKHKVYACEVTHQGLSSPVTKSFNRGEC
notes: Kn120: L234Y/L235Y/G236W/S239M/H268D/S298A/A327D + Y349C/T366W; also called Kn120/H1068
B2: EGL-ART6 (H240-Kn462/L73-k0//H240-H1445/L73-k0) (antibody, human IgG1, kappa)
heavy 1: B1 heavy 1 with Y233F, Y234Q, T249V, D269E, T306P, K325D, D326A
heavy 2: B1 heavy 2 with G235A, T249V, S297A, T306P, I331D
light: B1 light
notes: H1445: G236A/T250V/D270E/S298A/T307P/K326D/A330K/I332D/K334E + D356C/T366S/L368A/Y407V
B3: EGL-ART4 (H240-Kn456/L73-k0//H240-H1446/L73-k0) (antibody, human IgG1, kappa)
heavy 1: B1 heavy 1 with Y233F, Y234Q, T249V, D269E, T306P, D326A, A329M, I331E
heavy 2: B1 heavy 2 with G235A, T249V, S297A, T306P, K329M, I331E
light: B1 light
notes: Kn456: L234F/L235Q/G236W/S239M/T250V/H268D/D270E/S298A/T307P/A330M/I332E + Y349C/T366W; H1446: G236A/T250V/D270E/S298A/T307P/K326D/A330M/I332E/K334E + D356C/T366S/L368A/Y407V
B4: EGL-ART3 (H240-Kn443/L73-k0//H240-H1408/L73-k0) (antibody, human IgG1, kappa)
heavy 1: B1 heavy 1 with Y233F, Y234Q, D269E, K325D, D326A
heavy 2: B1 heavy 2 with G235A, S297A, K329A
light: B1 light
notes: Kn443: L234F/L235Q/G236W/S239M/H268D/D270E/S298A/K326D + Y349C/T366W; H1408: G236A/D270E/S298A/K326D/K334E + D356C/T366S/L368A/Y407V
B5: EGL-ART5 (H240-Kn462/L73-k0//H240-H1441/L73-k0) (antibody, human IgG1, kappa)
heavy 1: B1 heavy 1 with Y233F, Y234Q, T249V, D269E, T306P, K325D, D326A
heavy 2: B1 heavy 2 with G235A, T249V, S297A, T306P, K329A
light: B1 light
notes: Kn462: L234F/L235Q/G236W/S239M/T250V/H268D/D270E/S298A/T307P/K326D + Y349C/T366W; H1441: G236A/T250V/D270E/S298A/T307P/K326D/K334E + D356C/T366S/L368A/Y407V
B6: EGL-ART10 (H240-Kn494/L73-k0//H240-H1514/L73-k0) (antibody, human IgG1, kappa)
heavy 1: B1 heavy 1 with Y233F, Y234Q, T249V, D269E, T306P, D326A, I331E
heavy 2: B1 heavy 2 with T249V, S297A, T306P, K329A, I331E
light: B1 light
notes: Kn494: L234F/L235Q/G236W/S239M/T250V/H268D/D270E/S298A/T307P/I332E + Y349C/T366W; H1514: T250V/D270E/S298A/T307P/K326D/I332E/K334E + D356C/T366S/L368A/Y407V

The binders below were run against T5, human FcγRIIIa F extracellular domain (human, UniProt P08637 17-208) (assay: SPR; KD of G1d divided by KD of this antibody).
T5 construct: extracellular domain; also called hFcγR IIIa F; FcγRIIIa allotype F158
Method: (§1) The extracellular domains of FcγRs were produced by the method described in WO2014104165. The interaction between the produced antibodies and human FcγRs was analyzed using Biacore 8K+ by the method below. For the running buffer, 50 mM Na-Phosphate, 150 mM NaCl, and 0.05% Tween20 (pH 7.4) was used, and measurement was performed at 25° C. The sensor chip used was a Series S SA chip (GE Healthcare) onto which CaptureSelect Human Fab-kappa Kinetics Biotin Conjugate (Thermo Fisher Scientific) was immobilized. An antibody of interest was captured onto this chip, and each FcγR diluted with the running buffer was allowed to interact with it. The chip was regenerated using 10 mM Glycine-HCl (pH 1.5), and repeatedly used to capture antibodies and perform measurement. The dissociation constants KD (mol/L) of each antibody for FcγRs were calculated using Biacore Insight Evaluation Software, with a steady state affinity model for the dissociation constant for FcγRIIb and a 1:1 Langmuir binding model for the dissociation constants for the other FcγRs (Table 2).

T5 sequence (P08637 17-208): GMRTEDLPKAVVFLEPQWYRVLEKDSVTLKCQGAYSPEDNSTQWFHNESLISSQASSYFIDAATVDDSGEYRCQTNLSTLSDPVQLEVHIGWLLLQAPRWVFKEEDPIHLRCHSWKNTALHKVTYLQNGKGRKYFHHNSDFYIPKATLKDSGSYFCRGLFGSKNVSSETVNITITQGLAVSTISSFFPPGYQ

Relative value to KD between G1d and hFcgRs [times] | Binder
460 | B1
987 | B2
2520 | B3
185 | B4
148 | B5
1290 | B6

Each binder was assayed against T1, human FcγRIIb extracellular domain (assay: SPR; KD of G1d divided by KD of this antibody).
Method: as §1

Relative value to KD between G1d and hFcgRs [times] | Binder
22.8 | B1
3.4 | B2
0.9 | B3
1.6 | B4
1.3 | B5
1.4 | B6

The binders below were run against T6, human FcγRIa extracellular domain (human, UniProt P12314 16-292) (assay: SPR; KD of G1d divided by KD of this antibody).
T6 construct: extracellular domain; also called hFcγR Ia
Method: as §1

T6 sequence (P12314 16-292): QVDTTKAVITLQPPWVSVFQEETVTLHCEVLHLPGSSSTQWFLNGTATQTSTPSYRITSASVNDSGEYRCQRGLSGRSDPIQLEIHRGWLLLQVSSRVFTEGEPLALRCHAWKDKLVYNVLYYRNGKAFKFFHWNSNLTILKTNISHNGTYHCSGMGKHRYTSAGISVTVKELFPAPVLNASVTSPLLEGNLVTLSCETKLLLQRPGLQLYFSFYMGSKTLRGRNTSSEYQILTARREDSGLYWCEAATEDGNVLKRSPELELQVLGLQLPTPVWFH

Relative value to KD between G1d and hFcgRs [times] | Binder
3.4 | B1
1.2 | B2
2.9 | B3
0.5 | B4
0.5 | B5
3.4 | B6

The binders below were run against T7, human FcγRIIIa V extracellular domain (human, UniProt P08637 17-208) (assay: SPR; KD of G1d divided by KD of this antibody).
T7 construct: extracellular domain; also called hFcγR IIIa V; FcγRIIIa allotype V158
Method: as §1

T7 sequence (P08637 17-208 F176V): as the sequence (P08637 17-208) above, with F160V counted along it

Relative value to KD between G1d and hFcgRs [times] | Binder
215 | B1
322 | B2
462 | B3
114 | B4
92.9 | B5
566 | B6

Each binder was assayed against T2, human FcγRIIa H extracellular domain (assay: SPR; KD of G1d divided by KD of this antibody).
Method: as §1

Relative value to KD between G1d and hFcgRs [times] | Binder
14.7 | B1
118 | B2
6.3 | B3
32.1 | B4
33.9 | B5
2.7 | B6

The binders below were run against T3, human FcγRIIa R extracellular domain (assay: SPR; KD of G1d divided by KD of this antibody).
Method: as §1

Relative value to KD between G1d and hFcgRs [times] | Binder
49 | B1
24.1 | B2
3.2 | B3
13.7 | B4
10.4 | B5
1.5 | B6

The binders below were run against T4, hFcγRIIaH on Jurkat effector cells (assay: cell-based or functional assay).

EC50 of reporter gene induction (ADCP Reporter Bioassay, Hepa1-6/hEREG target cells) [µg/mL] | Binder
0.0218 | B1
0.0192 | B2
0.0432 | B3
0.0158 | B4
0.0245 | B5
0.0419 | B6

These binders were tested against T5, human FcγRIIIa F extracellular domain (assay: SPR; KD for hFcγRIIb divided by KD for this FcγR).
Method: as §1

A/I ratio (KD for FcγRIIb divided by KD for each FcγR) [ratio] | Binder
68.4 | B1
976 | B2
9940 | B3
396 | B4
399 | B5
3160 | B6

These binders were tested against T7, human FcγRIIIa V extracellular domain (assay: SPR; KD for hFcγRIIb divided by KD for this FcγR).
Method: as §1

A/I ratio (KD for FcγRIIb divided by KD for each FcγR) [ratio] | Binder
264 | B1
2630 | B2
15000 | B3
2000 | B4
2060 | B5
11400 | B6

These binders were tested against T2, human FcγRIIa H extracellular domain (assay: SPR; KD for hFcγRIIb divided by KD for this FcγR).
Method: as §1

A/I ratio (KD for FcγRIIb divided by KD for each FcγR) [ratio] | Binder
5.8 | B1
307 | B2
65.2 | B3
181 | B4
240 | B5
17.3 | B6

The binders below were run against T3, human FcγRIIa R extracellular domain (assay: SPR; KD for hFcγRIIb divided by KD for this FcγR).
Method: as §1

A/I ratio (KD for FcγRIIb divided by KD for each FcγR) [ratio] | Binder
13 | B1
42.4 | B2
22.5 | B3
52.4 | B4
49.9 | B5
6.6 | B6

What follows are binders tested against hFcγRIIIaV on Jurkat effector cells (human, UniProt P08637 17-254) (assay: cell-based or functional assay).
hFcγRIIIaV on Jurkat effector cells, sequence (P08637 17-254, form in doubt): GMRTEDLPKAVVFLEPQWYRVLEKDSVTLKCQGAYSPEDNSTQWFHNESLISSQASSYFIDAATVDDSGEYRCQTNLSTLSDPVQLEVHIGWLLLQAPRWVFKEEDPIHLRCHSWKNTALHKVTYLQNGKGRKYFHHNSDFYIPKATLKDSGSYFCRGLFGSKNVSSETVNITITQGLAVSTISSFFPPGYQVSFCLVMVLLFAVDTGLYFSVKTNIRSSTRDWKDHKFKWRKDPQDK

EC50 of reporter gene induction (ADCC Reporter Bioassay, Hepa1-6/hEREG target cells) [ng/mL] | Binder
1.35 | B1
1.5 | B2
0.789 | B3
1.53 | B4
1.67 | B5
0.107 | B6
